Positions count from the first letter of the chain named. Each block holds one molecule with its values, some of them ahead of it. Square brackets hold non-standard residues; d marks the D form. Ends that are not written are not given here. * marks the point of attachment. FITC = O=C1OC2(c3ccc(O)cc3Oc3cc(O)ccc32)c2ccc(NC(=S)*)cc21; Biotin = O=C1N[C@H]2[C@H](CS[C@H]2CCCCC(=O)*)N1; pT = C[C@@H](OP(=O)(O)O)[C@H](N)C(=O)O; Ahx = NCCCCCC(=O)O
Key:
[1] = system: HSP70 steady-state levels in HEK-293 cells; test: Cycloheximide chase of HSP70 steady-state levels, HEK-293; format: cell-based; settings: Flag immunoblot, representative, Fig. S1
Protocol: HEK293 and COS-7 cells were acquired from the UNC Lineberger Comprehensive Cancer Center Tissue Culture Facility. Cultures were maintained in Dulbecco’s Modified Eagle Medium with 10% fetal bovine serum at 37 °C and 5% CO2. Using the manufacturers’ instructions, X-tremeGENE 9 was used to transfect cells with plasmid DNA except for NanoBiT constructs, in which case we used Lipofectamine 3000 (Thermo Fisher Scientific). Where indicated, twenty-four hours post-transfection, cells were treated with 20 μM MG-132 (Selleck Chemicals) for 6 h or 100 μM cycloheximide (Sigma-Aldrich) for the stated duration.
Samples were collected in a lysis buffer composed of 50 mM Tris-HCl (pH 7.4), 150 mM NaCl, 2 mM EDTA, and 1% Triton X-100, supplemented with 1X Halt protease and phosphatase inhibitor (Thermo Scientific). The samples were then sonicated and combined with Laemmli sample buffer (Bio-Rad). The lysates were resolved on 4–15% TGX Stain-Free gels (Bio-Rad) and transferred to PVDF membranes (Bio-Rad). The membranes were blocked in 5% milk and incubated with primary antibodies (Table S3) overnight at 4°C. Following this, HRP-conjugated secondary antibodies (Cell Signaling Technology) were applied. Detection was performed using Lumigen ECL Ultra (Lumigen, tma-100), and the blots were imaged with the ChemiDoc Imaging System (BioRad).

[2] = biological target: T1, recombinant full-length CHIP-G132N (UniProt Q9UNE7 1-303, G132N); test: fluorescence polarisation; 20 nM N-terminally FITC-labelled peptide, recombinant CHIP constructs at increasing concentrations, 30 minutes at room temperature; one site/total binding fit with Bmax constrained to 100; settings: both partners purified
T1 construct: CHIP, full-length recombinant protein with G132N
T1 sequence (looked up): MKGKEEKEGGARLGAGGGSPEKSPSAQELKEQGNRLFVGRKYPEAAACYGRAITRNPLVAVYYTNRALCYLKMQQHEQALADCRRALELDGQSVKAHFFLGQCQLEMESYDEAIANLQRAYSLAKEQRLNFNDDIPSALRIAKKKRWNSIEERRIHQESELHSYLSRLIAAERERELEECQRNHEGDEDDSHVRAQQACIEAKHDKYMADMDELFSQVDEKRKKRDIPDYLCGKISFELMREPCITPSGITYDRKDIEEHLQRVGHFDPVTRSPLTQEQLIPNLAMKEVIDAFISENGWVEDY

[3] = biological target: T2, CHIP-TPR (21–154) (UniProt Q9UNE7 21-154); test: as above; settings: both partners purified
T2 construct: also called extended TPR domain of CHIP
T2 sequence (looked up): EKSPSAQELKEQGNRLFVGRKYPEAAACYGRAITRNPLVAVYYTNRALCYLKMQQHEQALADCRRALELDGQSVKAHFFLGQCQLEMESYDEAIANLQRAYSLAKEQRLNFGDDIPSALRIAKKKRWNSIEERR

[4] = biological target: T3, recombinant full-length CHIP-WT (UniProt Q9UNE7 1-303); test: as above; settings: both partners purified
T3 sequence (looked up): T1 sequence (looked up) with N132G

[5] = biological target: recombinant full-length CHIP-G132N (UniProt Q9UNE7 1-303, G132N); test: FP
[6] = biological target: T4, recombinant full-length CHIP-WT (UniProt Q9UNE7 1-303); test: FP
T4 chain: T1 sequence (looked up) with N132G

[7] = biological target: T5, CHIP-TPR G132S (UniProt Q9UNE7 21-154, G132S); test: BLI; BLItz, biotin peptides loaded on streptavidin sensors, TPR protein constructs at 1 to 25 μM; 20 mM HEPES, 150 mM NaCl, 5 mM β-mercaptoethanol, pH 7.2; Kd=koff/kon; settings: both partners purified
T5 construct: CHIP, extended TPR domain, residues 21-154, with G132S; site modification control of the BLI experiment; also called CHIP-G132S
T5 sequence (looked up): T2 sequence (looked up) with G112S

[8] = biological target: T6, CHIP-TPR N65S (UniProt Q9UNE7 21-154, N65S); test: as above; settings: both partners purified
T6 construct: CHIP, extended TPR domain, residues 21-154, with N65S; control of the BLI experiment; also called CHIP-N65S
T6 sequence (looked up): T2 sequence (looked up) with N45S

[9] = biological target: T2, CHIP-TPR (21–154); test: crystal structure; CHIP-TPR co-crystallised with peptide at a 3:1 peptide:protein ratio, sitting drop vapor diffusion at room temperature; 0.2 M lithium sulfate, 0.1 M Tris-HCl, pH 8.5, 30% PEG 4000; settings: both partners purified
[10] = system: HSC70; test: Cell-free ubiquitination of HSC70 by CHIP; format: biochemical, human; settings: 100 nM Uba1, 1 μM UBE2D2, 200 nM Hsc70, 100 μM Ub, 1 μM CHIP, pH 8.0, 15 min, room temperature; three experiments; p = 0.0774; Fig. 1K
Protocol: Ubiquitination assays were conducted using recombinant human HSC70, fluorescently tagged on its N-terminus. All assay components except ubiquitin were premixed on ice in a BSA-containing buffer (20 mM HEPES, pH 8.0; 200 mM NaCl; 0.5 mg/mL BSA). Reactions were initiated by adding ubiquitin and were allowed to proceed at room temperature unless specified otherwise. The reactions contained a final concentration of 100 nM Uba1, 1 μM UBE2D2, 200 nM Hsc70, 100 μM Ub, 5 mM MgCl2-ATP, and 1 μM CHIP. The reactions proceeded for 15 minutes before being quenched with SDS loading buffer. The quenched samples were separated by molecular weight via SDS-PAGE in non-reducing conditions using GenScript SurePAGE 4–12% gels. The CHIP-dependent ubiquitination of Hsc70 was visualized and quantified through fluorescent scanning on an Amersham Typhoon 5.

Molecule: HSP70-T636A: phospho-null version of HSP70
percent change of HSP70 level from time 0 ([1]; cycloheximide +MG132, 6 h (column from layout)): +31% | percent change of HSP70 level from time 0 ([1]; cycloheximide, 6 h, without MG132 (column from layout)): -84%

B1: N-FITC-Ahx-GSGP(pT)IEEVD (peptide)
peptide: {FITC-Ahx}-GSGP[pT]IEEVD
notes: tracer of the fluorescence polarisation assay; also called pEEVD; phosphorylated EEVD peptide; source: synthetic peptide (Lifetein or Genscript)
binding result [2]: binds | binding result [3]: binds | binding result [4]: binds | Kd [5]: 96 µM | Kd [6]: 46 µM

B2: amino-terminal biotin-labeled HSP70 tail peptide biotin-GSGSGPTIEEVD (peptide)
peptide: Biotin-GSGSGPTIEEVD
notes: C-terminal tail of HSP70; loaded on streptavidin sensors for BLI; also called biotin-EEVD; source: synthetic peptide, bought: Lifetein
binding result [7]: binds | binding result [8]: binds

B6: CHIP-WT: wild-type CHIP, E3 ligase co-chaperone (protein)
chain: T1 sequence (looked up) with N132G
ubiquitination of HSC70 [10]: not different

The next lines start with the values.

binding result [7]: binds | binding result [8]: binds
B3: amino-terminal biotin-labeled pT-HSP70 tail peptide biotin-GSGSGP(pT)IEEVD (peptide)
peptide: Biotin-GSGSGP[pT]IEEVD
notes: loaded on streptavidin sensors for BLI; also called biotin-pEEVD; pEEVD; source: synthetic peptide, bought: Lifetein

binding result [9]: binds
B4: phosphorylated HSP(C)70 peptide GP(pT)IEEVD (peptide)
peptide: GP[pT]IEEVD
notes: used for co-crystallisation with CHIP-TPR; also called pEEVD; pT-HSP70 peptide; source: synthetic peptide (Lifetein or Genscript)

binding result [9]: binds
B5: unphosphorylated HSP(C)70 peptide GPTIEEVD (peptide)
peptide: GPTIEEVD
notes: C-terminal tail of HSP70 (T636 is the third residue); used for co-crystallisation with CHIP-TPR; also called HSP70 peptide; HSP70 tail; source: synthetic peptide (Lifetein or Genscript)

From doi:10.1101/2025.02.17.637997, “Phosphorylation-State Modulated Binding of HSP70: Structural Insights and Compensatory Protein Engineering” (bioRxiv, 2025)
